Reference: US20260183411A1, “TARGETING SORTILIN” (priority 2024, published 2026)
Bridges are numbered along the chain shown (N, C = ends). Where no end group is shown, it is not given here. Side-chain parts run from the residue outwards. [ ]: non-standard residue; d: D form. tBuAla = CC(C)(C)C[C@H](N)C(=O)O; Tle = CC(C)(C)[C@H](N)C(=O)O; linker = not defined here; Nle = CCCC[C@H](N)C(=O)O; siRNA = not defined here

Experiments:
Human SORT1 (78-755)-His = target: T1, Human SORT1 (78-755)-His (human, UniProt Q99523 78-755); test: SPR (Biacore 8K), SORT1 on CM5 chip, siRNA-peptide conjugate as analyte, 1:1 model
T1 construct: range 78-755; Amine-coupled to CM5 chip for SPR; Two suppliers are named (Acrobiosystems, GenScript)
T1 sequence (looked up): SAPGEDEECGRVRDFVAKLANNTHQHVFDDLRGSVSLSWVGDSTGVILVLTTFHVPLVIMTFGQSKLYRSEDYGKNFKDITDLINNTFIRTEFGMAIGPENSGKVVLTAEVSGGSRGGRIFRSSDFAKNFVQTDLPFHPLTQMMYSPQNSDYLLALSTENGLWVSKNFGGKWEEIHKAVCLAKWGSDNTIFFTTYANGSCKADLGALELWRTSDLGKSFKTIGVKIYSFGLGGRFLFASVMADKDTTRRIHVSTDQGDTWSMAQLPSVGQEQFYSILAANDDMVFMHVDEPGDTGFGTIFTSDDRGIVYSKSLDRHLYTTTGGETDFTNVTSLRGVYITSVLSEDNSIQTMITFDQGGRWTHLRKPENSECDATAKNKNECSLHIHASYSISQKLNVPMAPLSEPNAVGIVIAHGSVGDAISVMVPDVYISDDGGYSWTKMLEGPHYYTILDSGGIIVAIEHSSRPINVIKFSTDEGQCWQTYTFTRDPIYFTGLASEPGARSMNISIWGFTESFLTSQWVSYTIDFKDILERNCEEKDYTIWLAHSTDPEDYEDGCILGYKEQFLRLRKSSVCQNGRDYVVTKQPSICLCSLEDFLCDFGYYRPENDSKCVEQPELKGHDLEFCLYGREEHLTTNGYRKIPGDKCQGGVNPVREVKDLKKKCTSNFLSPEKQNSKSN
Procedure: (§1) SPR analysis was performed on Series S CM5 chips (Cytiva) using a Biacore 8K instrument (Cytiva). Sensorgrams were double-referenced by subtracting the response on both a reference flow cell and a blank sample. Human SORT1 (78-755)-His (Acrobiosystems), human SORT1 (78-755)-His(GenScript), mouse SORT1 (76-753)-His (R&D Systems), rat SORT1 (76-752)-His (GenScript), and cyno SORT1 (76-753)-His (GenScript) were diluted to 20-60 μg/mL in 10 mM sodium acetate pH 4.5 buffer and immobilized onto Series S CM5 chips using amine coupling at a flow rate of 10 μL/min for 45-100 s.
(§2) Ten start-up cycles and a blank cycle preceded each analysis run. The runs were performed by sequential injections of analyte (0-20 nM, 3-fold serial dilutions) with a 90 s association and 900 s dissociation at a flow rate of 30 μL/min, followed by two regeneration cycles with 2 M MgCl2 for 90 s at a flow rate of 10 μL/min. […] Five start-up cycles and a blank cycle preceded each analysis run. The runs were performed by sequential injections of analyte (0-25 nM) with a 150 seconds (s) association and 300 s dissociation at a flow rate of 30 μL/min, followed by a regeneration with 2 M MgCl₂ for 200 s at a flow rate of 10 μL/min. The kinetic rate constants (kₐ and kd) and the equilibrium binding constant (Kd) were calculated using a 1:1 kinetic binding model on the Biacore Insight Evaluation Software (Cytiva).
(§3) SPR analysis was performed on Series S CM5 chips (Cytiva) using a Biacore 8K instrument (Cytiva). Sensorgrams were double-referenced by subtracting the response on both a reference flow cell and a blank sample. The SPR analysis was conducted using four different SORT1 species: Human SORT1, Mouse SORT1, Rat SORT1, and Cyno SORT1. The samples were prepared according to the general procedure described above herein. The kinetic rate constants (ka and […]) and the equilibrium binding constant (Kd) were calculated using a 1:1 kinetic binding model on the Biacore Insight Evaluation Software (Cytiva).

mouse SORT1 (76-753)-His = target: T2, mouse SORT1 (76-753)-His (mouse, UniProt Q6PHU5 76-753); test: as above
T2 construct: range 76-753; Amine-coupled to CM5 chip for SPR
T2 sequence (looked up): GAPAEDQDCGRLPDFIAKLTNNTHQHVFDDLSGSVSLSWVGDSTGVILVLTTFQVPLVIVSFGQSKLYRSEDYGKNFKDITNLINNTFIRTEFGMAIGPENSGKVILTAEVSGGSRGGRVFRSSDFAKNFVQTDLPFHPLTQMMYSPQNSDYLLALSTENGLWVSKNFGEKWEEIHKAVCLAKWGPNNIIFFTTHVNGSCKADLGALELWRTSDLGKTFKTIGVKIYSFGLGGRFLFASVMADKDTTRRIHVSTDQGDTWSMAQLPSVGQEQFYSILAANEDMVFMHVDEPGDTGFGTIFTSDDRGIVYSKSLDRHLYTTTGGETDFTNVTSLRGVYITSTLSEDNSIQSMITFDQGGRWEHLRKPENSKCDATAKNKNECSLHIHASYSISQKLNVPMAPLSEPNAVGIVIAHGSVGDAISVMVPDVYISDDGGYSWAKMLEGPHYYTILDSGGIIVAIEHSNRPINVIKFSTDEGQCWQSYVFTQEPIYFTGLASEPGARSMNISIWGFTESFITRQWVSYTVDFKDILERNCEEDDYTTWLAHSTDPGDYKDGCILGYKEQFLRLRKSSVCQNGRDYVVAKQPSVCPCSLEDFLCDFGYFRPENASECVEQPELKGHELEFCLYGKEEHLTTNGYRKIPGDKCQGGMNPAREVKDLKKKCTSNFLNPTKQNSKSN
Procedure: as §1, §2, §3

B1: SORT1 peptide 3 conjugate (peptide)
peptide: RWCENK([linker-siRNA])R[Nle]FTCRQ[Tle][tBuAla]
modifications: disulfide 3-11 (inferred); not fully specified; printed as RWCENKR(Nle)FTCRQ(B13)(F02); reading uncertain
notes: also called SORT1 peptide 3 siRNA conjugate
Kd (Human SORT1 (78-755)-His): 108 nM
Kd (mouse SORT1 (76-753)-His): 178 nM
